Source: patent US20140050743A1, “BINDING PROTEINS TO INHIBITORS OF COAGULATION FACTORS” (BAYER INTELLECTUAL PROPERTY GMBH, priority 2011, published 2014)

Assay: ELISA-based activity assay of antibody variants without a competition step
Format: binding
Design: key: +++: Variants with an average ratio above reference plus 2×SD; +/−: variants with a ratio below reference minus 2×SD; ++: All variants with a performance in between both thresholds; −: Variants with a ratio below 0.5
Settings: Table 10, multiple substitutions within M14-G07, variant to reference ratio (reference 2-fold improved over wt)
Protocol: To determine the activity of the mutated antibody variants on compound from Example 1K an equilibrium or dissociation limited ELISA assay format was used. Briefly, MTP plates (Nunc Maxisorp black, 460518) were coated with 4 μg/ml streptavidin (Calbiochem, 189730) diluted in coating buffer (Candor Bioscience GmbH, 121500) and incubated over night at 4° C. After washing with PBST, plates were blocked with 100% Smart Block (Candor Bioscience GmbH, 113500) in PBST for 1 h at room temperature and the washing step was repeated. Plates were incubated with compound from Example 1K at varying concentrations (0.3-200 nM) for 1 h at 37° C., washed with PBST and antibody fragments were immobilized by adding 25 μl of the crude bacterial cultures for 1 h at room temperature. After washing with PBST a competition step or the immediate detection was performed. […] For the detection of the residually bound Fabs a HRP-coupled anti-lambda antibody (Sigma, A5175) diluted in 10% Smart Block in PBST was added for 1 h at room temperature. After washing 10 μM Amplex Red (Invitrogen, A12222) were added and incubated for 10 to 30 min at room temperature followed by measurement of the fluorescence signal.
Provided in Table 9 are several examples of single and/or double amino acid substitutions introduced into the heavy and/or the light chain of M14-G07 (wt). Performance of the variants was analyzed in quadruples in the ELISA without a competition step and the FXa deinhibition assay (FXa DIA). In the ELISA, averages were calculated and normalized to the respective average expression level. Overall performance of variants was evaluated by comparing the variant to wt ratio from 2-3 independent experiments. Variants with an average ratio above wt plus 2×SD (standard deviation of the ratio) were considered as improved and are marked with “++”, whereas variants with a ratio below wt minus 2×SD were considered as reduced in their binding affinity and are marked with “−”. All variants with a performance in between both thresholds are marked with “+/−”. Variants with average fluorescence counts below the negative control (non-expressing cells) plus 3×SD were considered as non-binding and marked with “−−” with none of the variants fulfilling this criteria. In the FXa deinhibition assay averages were calculated and overall performance of variants was evaluated by comparing the variant to wt ratio from 2-3 independent experiments. Variants with an average ratio above wt plus 2×SD were considered as improved and are marked with “++”, whereas variants with a ratio below wt minus 2×SD were considered as either reduced in their binding affinity or non-binding and are marked with “−−”. All variants with a performance in between both thresholds are marked with “+/−”. Variants not analyzed are marked with “nd” (not determined). CDRs were defined according to Kabat.
Provided in Table 10 are examples of combined amino acid substitutions within M14-G07 antibodies. While not every combination is provided in Table 10, it is contemplated that the anti-rivaroxaban antibody may comprise any combination of modifications provided. Variant performance was analyzed in quadruples in the ELISA without a competition step. Averages were calculated, average background signals determined on a streptavidin coated plate without compound from Example 1K were subtracted if the compound from Example 1K concentration used for coating was below 10 nM and signals were normalized to the respective average expression level. Overall performance of variants was evaluated by comparing the variant to reference ratio from 2-3 independent experiments using a 2-fold improved reference variant as compared to wt. Variants with an average ratio above reference plus 2×SD are marked with “+++”, whereas variants with a ratio below reference minus 2×SD are marked with “+/−”. All variants with a performance in between both thresholds are marked with “++”. […]

Molecule | ELISA
M14-G07-16: antibody, Vh SEQ ID NO: 157, Vl SEQ ID NO: 158 (antibody, listed as Homo Sapiens, V domains shown) VH: EVQLLESGGGLVQPGGSLRLSCAASGFRFSSYAMSWVRQAPGKGLEWVGGISGSGGSTYYADSVKGRFTISRDNSKNTLYLQMNSLRAEDTAVYYCARQGRTSFYLDVWGQGTLVTVSS VL: QSVLTQPPSASGTPGQRVTISCSGSSRNIGSFYVYWYQQLPGTAPKLLIYDNRQRPSGVPDRFSGSKSGTSASLAISGLRSEDEADYYCVAWDDSYSGTWVFGGGTKLTVL | +++
M14-G07-28: antibody, Vh SEQ ID NO: 181, Vl SEQ ID NO: 182 (antibody, listed as Homo Sapiens, V domains shown) VH: EVQLLESGGGLVQPGGSLRLSCAASGFTFSSYAMSWVRQAPGKGLEWVGGISGSGGSTYYADSVKGRFTISRDNSKNTLYLQMNSLRAEDTAVYYCARQGRTSFYLDVWGQGTLVTVSS VL: QSVLTQPPSASGTPGQRVTISCSGSSSNIGSYYVYWYQQLPGTAPKLLIYDNNQRPSGVPDRFSGSKSGTSASLAISGLRSEDEADYYCVAWDDSYSGHWVFGGGTKLTVL | +++
M14-G07-19: antibody, Vh SEQ ID NO: 163, Vl SEQ ID NO: 164 (antibody, listed as Homo Sapiens, V domains shown) VH: EVQLLESGGGLVQPGGSLRLSCAASGFTFSSYAMSWVRQAPGKGLEWVSGISGSGGSTYYADSVKGRFTISRDNSKNTLYLQMNSLRAEDTAVYYCARQGRTSFYLDVWGQGTLVTVSS VL: QSVLTQPPSASGTPGQRVTISCSGSSRNIGSFYVYWYQQLPGTAPKLLIYDNRQRPSGVPDRFSGSKSGTSASLAISGLRSEDEADYYCVAWDDSLSGHWVFGGGTKLTVL | +++
M14-G07-26: antibody, Vh SEQ ID NO: 177, Vl SEQ ID NO: 178 (antibody, listed as Homo Sapiens, V domains shown) VH: EVQLLESGGGLVQPGGSLRLSCAASGFTFSSYAMSWVRQAPGKGLEWVGGISGSGGSTYYADSVKGRFTISRDNSKNTLYLQMNSLRAEDTAVYYCARQGKTSFYLDVWGQGTLVTVSS VL: QSVLTQPPSASGTPGQRVTISCSGSSSNIGSFYVYWYQQLPGTAPKLLIYDNNQRPSGVPDRFSGSKSGTSASLAISGLRSEDEADYYCVAWDDSYSGTWVFGGGTKLTVL | +++
M14-G07-17: antibody, Vh SEQ ID NO: 159, Vl SEQ ID NO: 160 (antibody, listed as Homo Sapiens, V domains shown) VH: EVQLLESGGGLVQPGGSLRLSCAASGFTFSSYAMSWVRQAPGKGLEWVGGISGSGGSTYYADSVKGRFTISRDNSKNTLYLQMNSLRAEDTAVYYCARQGRTSFYLDVWGQGTLVTVSS VL: QSVLTQPPSASGTPGQRVTISCSGSSRNIGAFYVYWYQQLPGTAPKLLIYDNRQRPSGVPDRFSGSKSGTSASLAISGLRSEDEADYYCVAWDDSWSGTWVFGGGTKLTVL | +++
M14-G07-22: antibody, Vh SEQ ID NO: 169, Vl SEQ ID NO: 170 (antibody, listed as Homo Sapiens, V domains shown) VH: EVQLLESGGGLVQPGGSLRLSCAASGFTFSSYAMSWVRQAPGKGLEWVGGISGSGGSTYYADSVKGRFTISRDNSKNTLYLQMNSLRAEDTAVYYCARQGRTSFYLDVWGQGTLVTVSS VL: QSVLTQPPSASGTPGQRVTISCSGSSSNIGAYYVYWYQQLPGTAPKLLIYDNNQRPSGVPDRFSGSKSGTSASLAISGLRSEDEADYYCVAWDDSWSGTWVFGGGTKLTVL | +++
M14-G07-27: antibody, Vh SEQ ID NO: 179, Vl SEQ ID NO: 180 (antibody, listed as Homo Sapiens, V domains shown) VH: EVQLLESGGGLVQPGGSLRLSCAASGFTFSSYAMSWVRQAPGKGLEWVGGISGSGGSTYYADSVKGRFTISRDNSKNTLYLQMNSLRAEDTAVYYCARQGRTSFYLDVWGQGTLVTVSS VL: QSVLTQPPSASGTPGQRVTISCSGSSSNIGAYYVYWYQQLPGTAPKLLIYDNNQRPSGVPDRFSGSKSGTSASLAISGLRSEDEADYYCVAWDDSYSGHWVFGGGTKLTVL | +++
M14-G07-21: antibody, Vh SEQ ID NO: 167, Vl SEQ ID NO: 168 (antibody, listed as Homo Sapiens, V domains shown) VH: EVQLLESGGGLVQPGGSLRLSCAASGFRFSSYAMSWVRQAPGKGLEWVGGISGSGGSTYYADSVKGRFTISRDNSKNTLYLQMNSLRAEDTAVYYCARQGETSFYLDVWGQGTLVTVSS VL: QSVLTQPPSASGTPGQRVTISCSGSSSNIGSYYVYWYHQLPGTAPKLLIYDNNQRPSGVPDRFSGSKSGTSASLAISGLRSEDEADYYCVAWDDSWSGTWVFGGGTKLTVL | +++
M14-G07-23: antibody, Vh SEQ ID NO: 171, Vl SEQ ID NO: 172 (antibody, listed as Homo Sapiens, V domains shown) VH: EVQLLESGGGLVQPGGSLRLSCAASGFRFSSYAMSWVRQAPGKGLEWVGGISGSGGSTYYADSVKGRFTISRDNSKNTLYLQMNSLRAEDTAVYYCARQGRTSFYLDVWGQGTLVTVSS VL: QSVLTQPPSASGTPGQRVTISCSGSSRNIGAFYVYWYQQLPGTAPKLLIYDNNQRPSGVPDRFSGSKSGTSASLAISGLRSEDEADYYCVAWDDSLSGTWVFGGGTKLTVL | +++
M14-G07-18: antibody, Vh SEQ ID NO: 161, Vl SEQ ID NO: 162 (antibody, listed as Homo Sapiens, V domains shown) VH: EVQLLESGGGLVQPGGSLRLSCAASGFRFSSYAMSWVRQAPGKGLEWVGGISGSGGSTYYADSVKGRFTISRDNSKNTLYLQMNSLRAEDTAVYYCARQGRTSFYLDVWGQGTLVTVSS VL: QSVLTQPPSASGTPGQRVTISCSGSSRNIGSYYVYWYQQLPGTAPKLLIYDNNQRPSGVPDRFSGSKSGTSASLAISGLRSEDEADYYCVAWDDSWSGTWVFGGGTKLTVL | +++
M14-G07-25: antibody, Vh SEQ ID NO: 175, Vl SEQ ID NO: 176 (antibody, listed as Homo Sapiens, V domains shown) VH: EVQLLESGGGLVQPGGSLRLSCAASGFRFSSYAMSWVRQAPGKGLEWVGGISGSGGSTYYADSVKGRFTISRDNSKNTLYLQMNSLRAEDTAVYYCARQGRTSFYLDVWGQGTLVTVSS VL: QSVLTQPPSASGTPGQRVTISCSGSSSNIGAYYVYWYQQLPGTAPKLLIYDNNQRPSGVPDRFSGSKSGTSASLAISGLRSEDEADYYCVAWDDSYSGTWVFGGGTKLTVL | +++
M14-G07-20: antibody, Vh SEQ ID NO: 165, Vl SEQ ID NO: 166 (antibody, listed as Homo Sapiens, V domains shown) VH: EVQLLESGGGLVQPGGSLRLSCAASGFRFSSYAMSWVRQAPGKGLEWVGGISGSGGSTYYADSVKGRFTISRDNSKNTLYLQMNSLRAEDTAVYYCARQGRTSFYLDVWGQGTLVTVSS VL: QSVLTQPPSASGTPGQRVTISCSGSSSNIGAYYVYWYQQLPGTAPKLLIYDNNQRPSGVPDRFSGSKSGTSASLAISGLRSEDEADYYCVAWDDSLSGTWVFGGGTKLTVL | +++
M14-G07-29: antibody, Vh SEQ ID NO: 183, Vl SEQ ID NO: 184 (antibody, listed as Homo Sapiens, V domains shown) VH: EVQLLESGGGLVQPGGSLRLSCAASGFRFSSYAMSWVRQAPGKGLEWVSGISGSGGSTYYADSVKGRFTISRDNSKNTLYLQMNSLRAEDTAVYYCARQGRTSFYLDVWGQGTLVTVSS VL: QSVLTQPPSASGTPGQRVTISCSGSSSNIGAYYVYWYQQLPGTAPKLLIYDNNQRPSGVPDRFSGSKSGTSASLAISGLRSEDEADYYCVAWDWSWSGTWVFGGGTKLTVL | +++
M14-G07-24: antibody, Vh SEQ ID NO: 173, Vl SEQ ID NO: 174 (antibody, listed as Homo Sapiens, V domains shown) VH: EVQLLESGGGLVQPGGSLRLSCAASGFTFSSYAMSWVRQAPGKGLEWVSGISGSGGSTYYADSVKGRFTISRDNSKNTLYLQMNSLRAEDTAVYYCARQGRTSFYLDVWGQGTLVTVSS VL: QSVLTQPPSASGTPGQRVTISCSGSSRNIGSYYVYWYQQLPGTAPKLLIYDNNQRPSGVPDRFSGSKSGTSASLAISGLRSEDEADYYCVAWDDSLSGTWVFGGGTKLTVL | +++
